Data taken from article PMC12489474, “New structural insights into the control of the retinoic acid receptors RAR/RXR by DNA, ligands, and transcriptional coregulators” (Nucleic Acids Research, 2025).
Each block holds one binder with its values, some of them ahead of it.

Columns and labels:
[1] = target: T1, RAR/RXR heterodimer (RARAΔABF with RXRAΔAB) (mouse (printed as MmRARAΔABF; the same …, UniProt P11416 82-421; P19793 126-462); experiment: MST; RR–DR0 with BMS493; heterodimer titrated against labelled NCoRNID; same buffer, 22°C; conditions: both partners purified
T1 construct: retinoic acid receptor alpha, residues 82-421 of Uniprot entry P11416; as the chain of m1; as the chain of m2; 1:1 heterodimer by SEC-MALS; this is told in the format of each assay; also called RR–DR0; source: E. coli BL21 (DE3); RAR and RXR purified separately, mixed (2-fold excess of RAR), heterodimer purified by SEC (Superdex 200); not shown: His6, N-terminal, cleaved
T1 sequence (looked up) 1: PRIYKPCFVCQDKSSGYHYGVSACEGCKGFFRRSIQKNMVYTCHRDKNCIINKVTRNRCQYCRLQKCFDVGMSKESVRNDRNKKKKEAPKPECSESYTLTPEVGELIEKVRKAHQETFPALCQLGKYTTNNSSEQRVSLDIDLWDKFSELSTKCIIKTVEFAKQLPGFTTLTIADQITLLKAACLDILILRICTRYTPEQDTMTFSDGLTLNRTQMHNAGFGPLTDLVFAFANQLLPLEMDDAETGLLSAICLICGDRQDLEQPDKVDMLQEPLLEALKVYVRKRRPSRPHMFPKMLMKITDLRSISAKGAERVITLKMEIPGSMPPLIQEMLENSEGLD
T1 sequence (looked up) 2: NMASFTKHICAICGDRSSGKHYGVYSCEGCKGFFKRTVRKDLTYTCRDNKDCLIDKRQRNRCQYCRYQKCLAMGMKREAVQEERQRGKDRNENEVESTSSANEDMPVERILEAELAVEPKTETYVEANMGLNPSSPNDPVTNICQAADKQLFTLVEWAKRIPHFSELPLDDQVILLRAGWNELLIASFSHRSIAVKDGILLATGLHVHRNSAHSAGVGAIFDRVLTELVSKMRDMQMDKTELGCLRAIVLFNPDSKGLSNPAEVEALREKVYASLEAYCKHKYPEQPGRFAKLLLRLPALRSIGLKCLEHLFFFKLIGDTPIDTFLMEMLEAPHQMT

[2] = target: T1, RAR/RXR heterodimer (RARAΔABF with …); experiment: MST; RR–DR1 with BMS493; heterodimer titrated against labelled NCoRNID; same buffer, 22°C; conditions: both partners purified
[3] = target: T1, RAR/RXR heterodimer (RARAΔABF with …); experiment: MST; RR–DR5 with BMS493; heterodimer titrated against labelled NCoRNID; same buffer, 22°C; conditions: both partners purified
[4] = target: T1, RAR/RXR heterodimer (RARAΔABF with …); experiment: MST; RR–IR0 with BMS493; heterodimer titrated against labelled NCoRNID; same buffer, 22°C; conditions: both partners purified
[5] = target: T1, RAR/RXR heterodimer (RARAΔABF with …); experiment: MST; RAR/RXR without DNA, with BMS493; heterodimer titrated against labelled NCoRNID; same buffer, 22°C; conditions: both partners purified
[6] = target: T1, RAR/RXR heterodimer (RARAΔABF with …); experiment: MST; RR–DR1 with the agonists AM580 + CD3254; heterodimer titrated against labelled NCoRNID; same buffer, 22°C; conditions: both partners purified
[7] = target: T1, RAR/RXR heterodimer (RARAΔABF with …); experiment: MST; RAR/RXR bound to DR0 DNA (RR–DR0), no ligand (apo); heterodimer titrated against labelled NCoRNID; same buffer, 22°C; conditions: both partners purified
[8] = target: T1, RAR/RXR heterodimer (RARAΔABF with …); experiment: MST; RAR/RXR bound to DR1 DNA (RR–DR1), no ligand (apo); heterodimer titrated against labelled NCoRNID; same buffer, 22°C; conditions: both partners purified
[9] = target: T1, RAR/RXR heterodimer (RARAΔABF with …); experiment: MST; RAR/RXR bound to DR5 DNA (RR–DR5), no ligand (apo); heterodimer titrated against labelled NCoRNID; same buffer, 22°C; conditions: both partners purified
[10] = target: T1, RAR/RXR heterodimer (RARAΔABF with …); experiment: MST; RAR/RXR bound to IR0 DNA (RR–IR0), no ligand (apo); heterodimer titrated against labelled NCoRNID; same buffer, 22°C; conditions: both partners purified
[11] = target: T1, RAR/RXR heterodimer (RARAΔABF with …); experiment: MST; RAR/RXR without DNA, no ligand (apo); heterodimer in 2-fold serial dilution from 20 μM, added to an equal volume of 80 nM Atto647N-NCoRNID; 20 mM Tris–HCl pH 7.5, 75 mM NaCl, 75 mM KCl, 2 mM CHAPS, 4 mM MgCl2, 5% glycerol, 0.05% Tween-20; 22°C; conditions: both partners purified
[12] = target: RARalpha dAB dF;RXRalpha dAB (Mus musculus / Homo sapiens (Methods …, UniProt P11416;P19793 82-421;126-462, |)); experiment: SEC-SAXS; apo; Fluorescence anisotropy: 20 mM Tris-HCl pH 7.5, 75 mM NaCl, 75 mM KCl, 2 mM CHAPS, 4 mM MgCl2, 2 mM TCEP, 10% glycerol, 0.5 nM Cy5-DNA, 4 uM ligands, 294 K; conditions: protein: recombinant;recombinant; tags: N-terminal His6 (pET15b); copies: 1;1; blunt
[13] = target: RARalpha dAB dF;RXRalpha dAB;NCoR NID (Mus musculus / Homo sapiens (Methods …, UniProt P11416;P19793;Q60974 82-421;126-462;2059-2325, ||)); experiment: SEC-SAXS; BMS493; Fluorescence anisotropy: 20 mM Tris-HCl pH 7.5, 75 mM NaCl, 75 mM KCl, 2 mM CHAPS, 4 mM MgCl2, 2 mM TCEP, 10% glycerol, 0.5 nM Cy5-DNA, 4 uM ligands, 294 K; conditions: protein: recombinant;recombinant;recombinant; tags: N-terminal His6 (pET15b); copies: 1;1;1; blunt

Kd [1]: 244 nM
Kd [2]: 499 nM
Kd [3]: 335 nM
Kd [4]: 289 nM
Kd [5]: 368 nM
Kd [6]: 5300 nM
Kd [7]: 414 nM
Kd [8]: 531 nM
Kd [9]: 283 nM
Kd [10]: 289 nM
Kd [11]: 490 nM
B1: Atto647N-labeled NCoRNID (domain or fragment, UniProt Q60974 2059-2325, looked up)
chain: QVPRTHRLITLADHICQIITQDFARNQVPSQASTSTFQTSPSALSSTPVRTKTSSRYSPESQSQTVLHPRPGPRVSPENLVDKSRGSRPGKSPERSHIPSEPYEPISPPQGPAVHEKQDSMLLLSQRGVDPAEQRSDSRSPGSISYLPSFFTKLESTSPMVKSKKQEIFRKLNSSGGGDSDMAAAQPGTEIFNLPAVTTSGAVSSRSHSFADPASNLGLEDIIRKALMGSFDDKVEDHGVVMSHPVGIMPGSASTSVVTSSEARRDE
modifications: Atto647N label (site not stated)

B2: DR0L Hoxb13 (dsDNA)
DNA 1: CTTCCAGGAAGGTCAAGGCCAAGTTGAAAG
DNA 2: CTTTCAACTTGGCCTTGACCTTCCTGGAAG
binding result [12]: binds
binding result [13]: binds
